From patent publication US20210130473A1 (SILVERBACK THERAPEUTICS, published 2021) come the findings set out here.

One experiment has as its target T1, rat CLEC10A (rat, UniProt P49301 59-306, limits assumed).
T1 construct: the assay is not described
T1 sequence (looked up): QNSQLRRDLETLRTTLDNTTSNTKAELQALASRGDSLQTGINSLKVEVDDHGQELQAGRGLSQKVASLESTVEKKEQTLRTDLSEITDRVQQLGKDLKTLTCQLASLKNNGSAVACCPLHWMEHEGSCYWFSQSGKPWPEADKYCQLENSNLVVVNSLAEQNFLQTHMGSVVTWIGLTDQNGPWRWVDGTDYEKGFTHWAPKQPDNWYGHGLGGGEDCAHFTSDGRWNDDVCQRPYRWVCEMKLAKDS
Briefly: not described.

Experiment [1] has as its target T2, rat ASGR1 on CHO-S cells (rat, UniProt P02706 1-284).
T2 construct: whole, on cells
T2 sequence (looked up): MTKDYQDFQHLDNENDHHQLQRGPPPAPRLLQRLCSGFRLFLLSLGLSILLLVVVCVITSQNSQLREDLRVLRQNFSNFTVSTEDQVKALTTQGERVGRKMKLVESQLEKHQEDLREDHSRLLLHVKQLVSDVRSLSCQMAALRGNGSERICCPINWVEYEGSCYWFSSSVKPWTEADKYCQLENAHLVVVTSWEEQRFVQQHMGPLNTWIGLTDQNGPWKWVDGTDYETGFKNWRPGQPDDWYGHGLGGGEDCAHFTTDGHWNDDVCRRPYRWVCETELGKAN
The experiment is described as follows: Guava flow cytometry on CHO-S cells expressing rat ASGR1. The method, then:
(§1) Anti-human ASGR1 antibodies of this disclosure were examined for cross-reactivity with Cynomolgus macaque and rat ASGR1. Briefly, sequence encoding Cynomolgus macaque or rat ASGR1 was transiently transfected into CHO-S cells. Transfected cells were before performing cell binding assay. A total of about 1.5×10⁴ transfected cells/well were added to 96-well V-bottom assay plate, incubated at 37° C., 5% CO2 for 48-72 hours, and then washed with culture medium before adding 100 μl of each ASGR1 antibody at different concentrations starting from 100 nM and 3-fold dilutions to a total of eight wells. The cells with antibody were incubated for 40 minutes at 4° C., then washed three times with 200 μl of fresh culture medium. To each well was added 50 μl PE conjugated goat anti-human Fc (SouthemBiotech) at 1:200 dilution in culture medium and then incubated at 4° C. for 20 minutes. After washing the plate once, the treated cells were resuspended in 200 μl culture medium and then the stained cells were analyzed on GUAVA® using Incyte software.

For experiment [2], the target named is T2, rat ASGR1 on CHO-S cells. The experiment is described as follows: Guava flow cytometry on CHO-S cells expressing rat ASGR1 (repeat of Table 16). As for the experimental part:
as §1, with “Briefly,” for “Anti-human ASGR1 antibodies of this disclosure were examined for cross-reactivity with Cynomolgus macaque and rat ASGR1. Briefly,”, “(SouthernBiotech)” for “(SouthemBiotech)”
as §1

Experiment [3] deals with T3, human ASGR1 (asialoglycoprotein receptor 1) on cells (human, UniProt P07306 1-291).
T3 construct: whole, on cells; also called HepG2 cells; CHO-S cells transfected with human ASGR1 full length DNA
T3 sequence (looked up): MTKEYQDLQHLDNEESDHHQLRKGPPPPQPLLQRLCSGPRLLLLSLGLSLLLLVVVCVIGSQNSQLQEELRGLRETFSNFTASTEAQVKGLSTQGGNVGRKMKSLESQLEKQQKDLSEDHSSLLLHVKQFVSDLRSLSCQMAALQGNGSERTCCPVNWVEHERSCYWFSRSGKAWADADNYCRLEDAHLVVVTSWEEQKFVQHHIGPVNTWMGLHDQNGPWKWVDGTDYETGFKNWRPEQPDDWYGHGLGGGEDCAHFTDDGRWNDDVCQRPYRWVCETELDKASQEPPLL
The experiment is described as follows: flow cytometry on HepG2 cells, anti-human IgG PE secondary, MFI (Geo Mean). As for the experimental part:
Briefly, 5×10⁴ HepG2 cells/well were contacted with titrating concentrations of anti-ASGR1 antibodies in FACS Buffer (FB: PBS+2% FBS+1 mM CaCl₂)) for 30 minutes at 4° C. Cells were washed twice in FB, then incubated in anti-human IgG PE secondary for 30 minutes at 4° C. Cells were washed twice in FB, then analyzed by flow cytometry.

Experiment [4] has as its target T4, Cynomolgus macaque ASGR1 on CHO-S cells (Cynomolgus macaque).
T4 construct: whole, on cells; also called Cynomologous ASGR1
Briefly: Guava flow cytometry on CHO-S cells expressing cynomolgus ASGR1. The method, then:
as §1
In general terms: Flow cytometry measures light scatter and fluorescence of single cells or particles in a stream.

The target of experiment [5] is T4, Cynomolgus macaque ASGR1 on CHO-S cells. The experiment is described as follows: Guava flow cytometry on CHO-S cells expressing cynomolgus ASGR1 (repeat of Table 15). As for the experimental part:
as §1

B1: G2D (antibody, V domains shown)
VH: EVQLQQSGPELVKPGASVKISCKASGYSFTGYYMHWVKQSHVKSLEWIGRINPNNGATNYNQNFKDKASLTVDKSSSTAYMEFHSLTSEDSAVYYCTSVNFYYWGQGTTLTVSS
VL: DIKMTQSPSSMYASLGERVTITCKASQVINSYLSWFQQKPGKSPETLIYRANTLVDGVPSRFSGSGSGQDYSLTISSLEYEDLGIYYCLQYAEFPYTFGGGTKLEIK
notes: parental mouse hybridoma antibody; also called mAb G2D
As usually defined, the EC50 is the concentration needed to bring the measured effect to its halfway point. High values mean a less potent agent, low ones a more potent agent. As usually defined, the EC50 (read off the curve) is the concentration giving half of the maximal effect. For the molecule B1, the binding result in the experiment with rat CLEC10A was “no binding”. Further, the concentration giving a half-maximal response (EC50) in the experiment with rat ASGR1 on CHO-S cells [1] turned out to be 0.37 nM; with rat ASGR1 on CHO-S cells [2] it was 0.37 nM; in experiment [4], 0.47 nM; in experiment [5] it was 0.47 nM. The “EC50 (read off the curve)” value in experiment [3] was around 0.2 µg/mL.
